Laboratory results published in US20250154275A1 (SHANGHAI JUNSHI BIOSCIENCES, published 2025).
Where a chain is given by its changes, count along the chain named.

How the values were obtained:
[1] = target: T1, CD20 on the surface of Raji cells (human, UniProt P11836 1-297); assay: flow cytometry on Raji cells (CD20 positive), fluorescent secondary antibody, µg/mL is the unit of the axis; fit value of a flat curve
T1 construct: whole, on cells; Raji cells are described as human B lymphoma cells, CD20 positive; also called human CD20
T1 sequence (looked up): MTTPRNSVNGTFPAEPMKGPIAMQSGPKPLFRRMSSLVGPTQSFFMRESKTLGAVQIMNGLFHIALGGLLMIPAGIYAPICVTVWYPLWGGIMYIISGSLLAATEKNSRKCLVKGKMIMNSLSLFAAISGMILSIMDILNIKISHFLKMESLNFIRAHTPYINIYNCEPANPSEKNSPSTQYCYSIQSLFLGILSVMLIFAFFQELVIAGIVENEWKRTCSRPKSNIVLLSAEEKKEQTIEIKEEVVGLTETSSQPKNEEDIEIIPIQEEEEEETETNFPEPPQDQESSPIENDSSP

[2] = target: T2, human CD3 on the surface of Jurkat cells (human, UniProt P07766 23-207; P04234 22-171; P09693 23-182); assay: flow cytometry on Jurkat cells (CD3-positive), MFI dose curve
T2 construct: whole, on cells
T2 sequence (P07766 23-207, chain 1 of 3): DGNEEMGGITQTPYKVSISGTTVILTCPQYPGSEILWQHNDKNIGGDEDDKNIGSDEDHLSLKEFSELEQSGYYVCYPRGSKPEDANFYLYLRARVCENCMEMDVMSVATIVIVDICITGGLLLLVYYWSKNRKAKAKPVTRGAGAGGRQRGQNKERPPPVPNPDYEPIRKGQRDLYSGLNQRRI
T2 sequence (P04234 22-171, chain 2 of 3): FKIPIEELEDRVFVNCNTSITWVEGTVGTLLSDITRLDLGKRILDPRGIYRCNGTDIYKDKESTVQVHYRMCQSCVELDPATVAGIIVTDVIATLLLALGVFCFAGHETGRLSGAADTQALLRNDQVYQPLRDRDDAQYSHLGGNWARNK
T2 sequence (P09693 23-182, chain 3 of 3): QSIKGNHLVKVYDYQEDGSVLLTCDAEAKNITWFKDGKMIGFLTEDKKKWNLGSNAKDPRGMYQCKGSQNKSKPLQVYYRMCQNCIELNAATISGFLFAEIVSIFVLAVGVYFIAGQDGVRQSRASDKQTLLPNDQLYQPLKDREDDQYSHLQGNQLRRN

[3] = target: T1, CD20 on the surface of Raji cells; assay: flow cytometry on Raji cells (CD20 positive), MFI dose curve
[4] = target: T3, cynomolgus monkey CD3e overexpressed on the surface of CHO cells (cynomolgus monkey, UniProt Q95LI5 22-198); assay: flow cytometry on CHO cells overexpressing cynomolgus monkey CD3e, fluorescent secondary antibody
T3 construct: whole, on cells; also called CHO Cyno CD3e cells
T3 sequence (Q95LI5 22-198): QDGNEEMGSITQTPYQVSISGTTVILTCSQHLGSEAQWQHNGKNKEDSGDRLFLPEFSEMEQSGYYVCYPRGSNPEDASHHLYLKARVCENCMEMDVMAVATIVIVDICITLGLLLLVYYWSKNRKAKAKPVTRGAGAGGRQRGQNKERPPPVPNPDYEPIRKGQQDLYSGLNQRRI

[5] = target: T3, cynomolgus monkey CD3e overexpressed on …; assay: flow cytometry on CHO cells overexpressing cynomolgus monkey CD3e
[6] = target: T4, recombinant human CD3ε (Novoprotein, C578) (human, UniProt P07766 23-126); assay: ELISA, plate coated with recombinant human CD3ε, anti-human IgG4 Fc-HRP detection
T4 construct: Bought protein coated on the ELISA plate
T4 sequence (P07766 23-126 limits assumed): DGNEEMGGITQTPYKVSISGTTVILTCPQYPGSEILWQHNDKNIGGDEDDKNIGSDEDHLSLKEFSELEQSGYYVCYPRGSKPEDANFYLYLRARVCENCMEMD

## Anti-KLH IgG4 (antibody)
[1]
  EC50: 52 µg/mL

## REGN1979 (Regeneron Pharmaceuticals) (bispecific antibody)
[2]
  EC50: 4.7 µg/mL
[3]
  EC50: 30.1 µg/mL

B1: JSCD3 (antibody, human IgG4 S228P, kappa, V domains shown)
VH: EVQLVESGGGLVQPGGSLKLSCAASGFTFSTYAMNWVRQAPGKGLEWVGRIRSKYNNYATYYADSVKDRFTISRDDSKNSLYLQMNSLKTEDTAVYYCVRHGNFGNSYVSWFAYWGQGTLVTVSS
VL: QAVVTQEPSLTVSPGGTVTLTCRSSTGAVTTSNYANWVQQKPGQAPRGLIGGTNKRAPGTPARFSGSLLGGKAALTLSGVQPEDEAEYYCALWYSNLWVFGGGTKLTVLR
notes: humanized from murine SP34; also called humanized anti-CD3 antibody JSCD3; positive control
[4]
  binding result: binds

B2: bispecific antibody molecule TZT6 (bispecific antibody, human IgG4 S228P, kappa)
heavy: QVQLVQSGAEVKKPGSSVKVSCKASGYAFSYSWINWVRQAPGQGLEWMGRIFPGDGDTDYNGKFKGRVTITADKSTSTAYMELSSLRSEDTAVYYCARNVFDGYWLVYWGQGTLVTVSSASTKGPSVFPLAPCSRSTSESTAALGCLVKDYFPEPVTVSWNSGALTSGVHTFPAVLQSSGLYSLSSVVTVPSSSLGTKTYTCNVDHKPSNTKVDKRVESKYGPPCPPCPAPEFLGGPSVFLFPPKPKDTLMISRTPEVTCVVVDVSQEDPEVQFNWYVDGVEVHNAKTKPREEQFNSTYRVVSVLTVLHQDWLNGKEYKCKVSNKGLPSSIEKTISKAKGQPREPQVYTLPPCQEEMTKNQVSLWCLVKGFYPSDIAVEWESNGQPENNYKTTPPVLDSDGSFFLYSRLTVDKSRWQEGNVFSCSVMHEALHNHYTQKSLSLSLGK
light: DIVMTQTPLSLPVTPGEPASISCRSSKSLLHSNGITYLYWYLQKPGQSPQLLIYQMSNLVSGVPDRFSGSGSGTDFTLKISRVEAEDVGVYYCAQNLELPYTFGGGTKVEIKRTVAAPSVFIFPPSDEQLKSGTASVVCLLNNFYPREAKVQWKVDNALQSGNSQESVTEQDSKDSTYSLSSTLTLSKADYEKHKVYACEVTHQGLSSPVTKSFNRGEC
chain: QAVVTQEPSLTVSPGGTVTLTCRSSTGAVTTSNYANWVQQKPGQAPRGLIGGTNKRAPGTPARFSGSLLGGKAALTLSGVQPEDEAEYYCALWYSNLWVFGCGTKLTVLGGGGSGGGGSGGGGSGGGGSEVQLVESGGGLVQPGGSLKLSCAASGFTFSTYAMNWVRQAPGKCLEWVGRIRSKYNNYATYYADSVKDRFTISRDDSKNSLYLQMNSLKTEDTAVYYCVRHGNFGNSYVSWFAYWGQGTLVTVSSGGGGSGGGGSESKYGPPCPPCPAPEFLGGPSVFLFPPKPKDTLMISRTPEVTCVVVDVSQEDPEVQFNWYVDGVEVHNAKTKPREEQFNSTYRVVSVLTVLHQDWLNGKEYKCKVSNKGLPSSIEKTISKAKGQPREPQVCTLPPSQEEMTKNQVSLSCAVKGFYPSDIAVEWESNGQPENNYKTTPPVLDSDGSFFLVSRLTVDKSRWQEGNVFSCSVMHEALHNRFTQKSLSLSLGK
notes: also called anti-CD3/CD20 bispecific antibody TZT6
[5]
  binding result: binds
[6]
  EC50: 0.0214 µg/mL
[2]
  EC50: 4.44 µg/mL
[3]
  EC50: 3.67 µg/mL

B3: bispecific antibody molecule TZT7 (bispecific antibody, human IgG4 S228P, kappa)
heavy: B2 heavy with Y348C, C353S, W365S, L367A, Y406V, H434R, Y435F
light: B2 light
chain: QVQLVQSGAEVKKPGSSVKVSCKASGYAFSYSWINWVRQAPGQGLEWMGRIFPGDGDTDYNGKFKGRVTITADKSTSTAYMELSSLRSEDTAVYYCARNVFDGYWLVYWGQGTLVTVSSASTKGPSVFPLAPCSRSTSESTAALGCLVKDYFPEPVTVSWNSGALTSGVHTFPAVLQSSGLYSLSSVVTVPSSSLGTKTYTCNVDHKPSNTKVDKRVASGGGGSGGGGSQAVVTQEPSLTVSPGGTVTLTCRSSTGAVTTSNYANWVQQKPGQAPRGLIGGTNKRAPGTPARFSGSLLGGKAALTLSGVQPEDEAEYYCALWYSNLWVFGCGTKLTVLGGGGSGGGGSGGGGSGGGGSEVQLVESGGGLVQPGGSLKLSCAASGFTFSTYAMNWVRQAPGKCLEWVGRIRSKYNNYATYYADSVKDRFTISRDDSKNSLYLQMNSLKTEDTAVYYCVRHGNFGNSYVSWFAYWGQGTLVTVSSGGGGSGGGGSESKYGPPCPPCPAPEFLGGPSVFLFPPKPKDTLMISRTPEVTCVVVDVSQEDPEVQFNWYVDGVEVHNAKTKPREEQFNSTYRVVSVLTVLHQDWLNGKEYKCKVSNKGLPSSIEKTISKAKGQPREPQVYTLPPCQEEMTKNQVSLWCLVKGFYPSDIAVEWESNGQPENNYKTTPPVLDSDGSFFLYSRLTVDKSRWQEGNVFSCSVMHEALHNHYTQKSLSLSLGK
notes: IgG4 Fc (G4 FC in the vector's name); also called anti-CD3/CD20 bispecific antibody TZT7
[5]
  binding result: binds
[6]
  EC50: 0.0856 µg/mL
[2]
  EC50: 26.6 µg/mL
[3]
  EC50: 0.515 µg/mL
